Test results: paper PMC11784564 (RSC Chemical Biology, 2025)

Tests used:
[1] = molecular target: T1, PfSir2A (Plasmodium falciparum) (UniProt Q8IE47); assay: EMSA; settings: room temperature
T1 sequence: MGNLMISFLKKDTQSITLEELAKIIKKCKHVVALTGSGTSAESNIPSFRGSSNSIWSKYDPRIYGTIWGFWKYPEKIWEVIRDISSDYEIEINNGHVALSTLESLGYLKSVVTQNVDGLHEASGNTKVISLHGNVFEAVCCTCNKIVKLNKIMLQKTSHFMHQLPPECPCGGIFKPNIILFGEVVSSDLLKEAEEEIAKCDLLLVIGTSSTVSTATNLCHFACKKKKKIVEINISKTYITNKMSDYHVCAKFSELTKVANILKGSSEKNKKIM

PfSir2A [2] = molecular target: T2, PfSir2A (Plasmodium falciparum, UniProt Q8IE47); assay: HPLC deacetylation assay with H3K9Ac peptide; format: biochemical
T2 sequence (Q8IE47 1-273): T1 sequence

PfSir2A [3] = molecular target: T2, PfSir2A; assay: HPLC demyristoylation assay with H3K9Myr peptide; format: biochemical
PfSir2A [4] = molecular target: T3, PfSir2A (Plasmodium falciparum, UniProt Q8IE47 1-273); assay: MST
T3 sequence: T1 sequence

In the case of “601 nucleosome assembly sequence DNA, 147 bp”, the Kd ([1]; […]) / MST buffer) is reported as 4 µM.

For `c1cncc(-c2c[nH]nn2)c1` [3-TYP], the IC50 (PfSir2A [2]) was about 59.6 µM.

H3K9Ac dNuc (601-positioned nucleosome) showed a Kd ([1]; H3K9Ac on histone H3; […]) / MST buffer) of 1.4 µM.

Work on `NC(=O)c1ccc[n+]([C@@H]2O[C@H](CO)[C@@H](O)[C@H]2O)c1` [nicotinamide riboside] yielded an IC50 (PfSir2A [2]) of 155 ± 14.9 µM.

Work on `CCCCCCCCCCCCCC(=O)O` [myristic acid] yielded an IC50 (PfSir2A [3]) of 107 ± 15 µM.

For GAAGTCGGGGATGGCAGAGGCAGTGCT (ssDNA) [ssDNA (MST)], the Kd (PfSir2A [4]) was 0.138 µM.
